Test results taken from US20170137504A1 (TERACLON IDF S L, published 2017).
Values belong to the binder of their own block, whether it stands above or below them.

What was measured:
[1] = target: T1, VEGF (4 ng/mL, added in the in vitro angiogenesis assay) (UniProt P15692-4 27-191, limits assumed); experiment: cell-based or functional assay
[2] = target: T1, VEGF (4 ng/mL, added in the in vitro …); experiment: cell-based or functional assay; remark: listed apart in the source

T1 sequence (P15692 other isoform, or with tags, fused parts or gaps limits assumed): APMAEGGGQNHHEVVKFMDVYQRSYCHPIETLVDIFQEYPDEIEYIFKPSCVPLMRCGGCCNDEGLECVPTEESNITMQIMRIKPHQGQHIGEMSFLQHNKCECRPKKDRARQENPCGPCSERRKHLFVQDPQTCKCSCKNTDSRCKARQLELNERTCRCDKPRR

fold less antibody concentration than V13 for an inhibitory effect on angiogenesis [1]: ≤ 12 times less
IC50, average value (in vitro angiogenesis, HUVEC/NHDF co-culture) [2]: 30.2 µg/mL
IC50, branching points (in vitro angiogenesis, HUVEC/NHDF co-culture) [2]: 24.7 µg/mL
IC50, length of the tubes (in vitro angiogenesis, HUVEC/NHDF co-culture) [2]: 35.8 µg/mL
B1: anti-VEGF vNAR V19 (VNAR, not shown: small tags and cut ends)
VNAR: AQRVEQTPRTATKETGESLTINCVLRDASFELKDTGWYRTKLGSTNEQSISIGGRYVETVNKGSKSFSLRISDLRVEDSGTYKCQAFYSLPLGDYNYSLLFRGEKGAGTVLTVN

fold less antibody concentration than V13 for an inhibitory effect on angiogenesis [1]: ≤ 12 times less
IC50, average value (in vitro angiogenesis, HUVEC/NHDF co-culture) [2]: 23.4 µg/mL
IC50, branching points (in vitro angiogenesis, HUVEC/NHDF co-culture) [2]: 19.3 µg/mL
IC50, length of the tubes (in vitro angiogenesis, HUVEC/NHDF co-culture) [2]: 27.6 µg/mL
B2: anti-VEGF vNAR V32R (VNAR, not shown: small tags and cut ends)
chain: AASLDQTPRTATRETGESLTINCVFTDSSCGLCGTSWFRNNPGSTDWERITIGGRYVESVNKGAKSFSLQIKDLTVEDSVTYYCKAQGHRYFSKVCELRCPSYYYDGAGTVLTVN

IC50, average value (in vitro angiogenesis, HUVEC/NHDF co-culture) [2]: 388 µg/mL
IC50, branching points (in vitro angiogenesis, HUVEC/NHDF co-culture) [2]: 340 µg/mL
IC50, length of the tubes (in vitro angiogenesis, HUVEC/NHDF co-culture) [2]: 436 µg/mL
B3: anti-VEGF vNAR V13 (other, not shown: small tags and cut ends)
chain: ASLDQTPRTATRETGESLSINCVLTDTSHILFGTKWLWNNPGSTDWESITIGGRYAESVNNQAKSFSLQIKDLTVEDSGTYYCKAQTIGRRKNLLPRPLVNGIAAMGYSSSDYDGAGTVLTVN
